Results from the supplement of paper PMC10126150.
± gives the standard deviation of the averaged measurements.

Tested on: ATP
Assay: switch fluorescence ratio, 500 uM ATP over buffer (Cy3 cluster intensity, sum of 5 cycles each) (fold (ratio)); higher = stronger signal-on switching upon ATP binding; sequences stand for … in TCGTCGGCAGCGTCAGATGTGTATAAGAGACAGTTTTTTTTTTTTTTTTTTTTTTTTT…TC
Settings: aptamer strand: ATP DNA aptamer (quencher-CACCTGGGGGAGTATTGCGGAGGAAGG + anchor), 100 nM annealed; ATP concentration: 500 uM
Summary of the method: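 Five buffer/ATP imaging cycles were run on Cy3-labelled switching-strand clusters on a modified Illumina MiSeq flow-cell, with NaOH stripping and re-annealing between cycles. In each cycle, clusters annealed to 100 nM quencher-labelled ATP aptamer were imaged in selection buffer, then after 15 min with 500 uM ATP at 22 °C. Per cluster, the fluorescence ratio is summed target-cycle over summed buffer-cycle Cy3 intensity, averaged per switch-domain sequence. Only clusters within 100-1000 RFU were kept.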
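Note: ATP exposure 15 min at 22 °C before imaging.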

Sequence	switch fluorescence ratio
TCTGGCGTAA	1.79 ± 1.1
AACGGTCAGA	1.02 ± 0.05
AGTGCAAGAT	1.08 ± 0.028
GTTAAAGGGT	1.01 ± 0.0075
GATATTAGGC	0.9858 ± 0.009
TTAGGGGGAA	1.01 ± 0.025
TCGTTATTAA	1 ± 0.012
TCTTCAAGTT	0.988 ± 0.031
TTAAAAATGC	1.02 ± 0.011
AACATATCGG	1.02 ± 0.029
AACGTAGTCG	1.031 ± 0.0046
GATAAGTTGG	0.935 ± 0.09
TACTTTCGTA	0.983 ± 0.011
TGACGGGGGT	0.989 ± 0.028
GGGGTATACT	1.021 ± 0.0052
TATTGTTCTG	0.9819 ± 0.0025
TTATGGTAAC	1.04 ± 0.018
ATGAGTCTTT	0.9801 ± 0.0079
TTGTGAACCG	0.973 ± 0.014
CGTTTAGGTT	1 ± 0.017
TACGGCGGGG	1.02 ± 0.047
TTTGCATTCA	0.999 ± 0.038
GGGGGCGCAA	1.129 ± 0.011

Sequence	switch fluorescence ratio
CTTAGAAGTT	1.01 ± 0.027
TAGGGTGCTA	1 ± 0.019
TTGTAGTCTC	1.03 ± 0.11
AAGGTTGCAA	1.01 ± 0.011
TATACGGTTA	1.06 ± 0.022
CCGCCACCTG	1.56 ± 0.059
GAGGGGATAT	1.38 ± 0.59
CGAGTGCCCA	0.996 ± 0.033
GTTCCTCATT	1.45 ± 0.61
TGATTCTCGT	1.02 ± 0.018
CCATTACGTT	1.04 ± 0.05
TCTCGTGAGA	0.997 ± 0.053
TATCGGTATT	1 ± 0.039
ATGTGTTCGG	0.98 ± 0.0064
CATAGGGAGA	1.006 ± 0.0042
CAATACTTAT	1.01 ± 0.019
ACTACTGGGA	0.976 ± 0.041
TTCATCGGCA	1.35 ± 0.47
AAGGGATCGG	0.994 ± 0.024
CGTGTAATTT	0.993 ± 0.016
GCGGTACGCG	0.953 ± 0.012
TTCTTGGGGT	0.975 ± 0.056
GGTGGGTGGT	0.99 ± 0.036

Sequence	switch fluorescence ratio
TCAAAGTTGG	1.01 ± 0.022
CCTGTACCAC	1.07 ± 0.019
GATGTTGATT	0.997 ± 0.014
GGGGGCAGCC	1.05 ± 0.083
GAATCTATTC	1.01 ± 0.061
TCGGTATGTG	1.03 ± 0.045
GGATAATATT	1.05 ± 0.026
AGGGGTAAAT	1.02 ± 0.073
GTATTTGGGT	0.986 ± 0.041
GCAGGAAAAC	1.04 ± 0.018
GGGACCGGTT	0.99 ± 0.03
TAAGGCTGAC	1.15 ± 0.023
AAACGTTAGC	1.03 ± 0.052
CCAGCTGGT	1.02 ± 0.042
GGGCTTTTGG	0.9868 ± 0.0012
TTGTGGGTTG	1.89 ± 1.2
GGTCTGTTTC	1.01 ± 0.015
GGGCAATTAG	1.15 ± 0.014
CCGGGAGCCG	1.023 ± 0.0053
TTTTTTATA	0.996 ± 0.032
ATATCAATC	1.02 ± 0.034
GATCGGGGTT	0.994 ± 0.036
ATTGGTTTAA	0.9981 ± 0.002

Sequence	switch fluorescence ratio
CTGCAGCGTC	1.29 ± 0.053
TTTTGTTTGG	1.02 ± 0.041
TTCTGATGGT	0.99 ± 0.021
GACTTATGGG	1.04 ± 0.033
CAGCTTGTTT	1.01 ± 0.02
CCGGGTCAGC	1.21 ± 0.026
TATTTAAAAG	1.003 ± 0.009
AAATGGCATT	1 ± 0.033
AAGTGATGCT	1.03 ± 0.087
GTGTCAATTT	1.13 ± 0.17
TGTCTTACCT	1.147 ± 0.0093
TTTTTTTGAG	1.02 ± 0.026
TACCTGCAGC	1.12 ± 0.064
GAGTTGTCGA	0.994 ± 0.022
TAATTGATGT	1.01 ± 0.06
TGGGTTGATT	1.01 ± 0.031
AATAGGGCCT	1.02 ± 0.023
GCTTATGGGA	1 ± 0.039
TGTGAAGGTT	0.986 ± 0.054
AGAGGGCATT	0.967 ± 0.045
AGGCGAGTTA	0.9937 ± 0.0054
ATGGCGATCA	0.999 ± 0.0078
TAACTCTGAG	0.979 ± 0.015

Sequence	switch fluorescence ratio
CATGAAACAT	1.06 ± 0.048
ACAGTCTCTG	1.03 ± 0.018
TGGCCTTATT	0.992 ± 0.011
TGTTGGCTTT	1.06 ± 0.022
ACGGTCAGTC	1.05 ± 0.077
AAGATTCGCG	0.9914 ± 0.0014
GGCACTGGAT	1.02 ± 0.02
TTTGTATTCC	0.991 ± 0.1
CGGGGGTGTG	0.993 ± 0.035
GAGTTCTTG	0.986 ± 0.023
ATGGTTACGG	1 ± 0.035
GGGGAAGAAT	0.9784 ± 0.0021
ATGCTGTTGG	1 ± 0.026
TATAGAAGCG	1.01 ± 0.021
GCATTCGGAT	1.01 ± 0.014
GCTTTTGGAG	1.008 ± 0.0047
GATGTGGGGG	0.99 ± 0.028
TAACGGGCTG	1.07 ± 0.054
ATGTGCTGCC	0.983 ± 0.019
CAGCATCATC	1.242 ± 0.011
TAGGACTCGG	0.989 ± 0.024
TATAATTTCT	1.04 ± 0.018
GAGGGTAAGA	1.02 ± 0.062

Sequence	switch fluorescence ratio
TTTTTGGATC	1 ± 0.025
AGGACGAGGG	0.983 ± 0.013
TGGGCGCCGT	0.957 ± 0.017
AATTATTTTT	0.9867 ± 0.0061
ATAGTTTTCG	1 ± 0.034
ATGAGTTTTG	0.984 ± 0.029
TTAATTGTTT	0.989 ± 0.018
TTTGGTTTAG	1 ± 0.015
AAGGTTGCGC	0.986 ± 0.026
CCCGGAGGCC	0.961 ± 0.034
CTTTTTAGGT	0.998 ± 0.012
CCTTTAGGGT	0.9997 ± 0.0014
AGAATCACTG	1.08 ± 0.04
CGAATTTGCC	1.01 ± 0.065
GAGGTTCGCT	0.979 ± 0.069
TTTTTGTGGT	1 ± 0.036
CGAAGATGGG	0.981 ± 0.03
CAGGCCTCTT	0.9943 ± 0.0035
AGTATTCGCT	0.975 ± 0.017
TGTTGTTTGG	1 ± 0.063
AGGACCAGTT	1.03 ± 0.055
GGGAGAGGCG	0.984 ± 0.013
TTTCATTATC	1.02 ± 0.016

Sequence	switch fluorescence ratio
TCGTTCAGCG	0.997 ± 0.019
AGAGGGTACG	1.06 ± 0.017
ATAATATTGT	0.999 ± 0.0022
GTGGTGGGGT	1.01 ± 0.028
CAAGCTCTGT	1.01 ± 0.016
TTGGATTTCA	0.972 ± 0.045
TGGTAAACGG	0.988 ± 0.02
ACGTGGGGCT	1.05 ± 0.027
TGGGGATTAA	0.991 ± 0.013
GGTATAATTA	0.964 ± 0.024
TCCAGTTTTT	0.999 ± 0.015
TATTATTGGT	0.992 ± 0.045
TTTGGTCAGA	0.973 ± 0.049
GGGGAGAAGG	0.981 ± 0.031
AAAGGCCTTA	1.01 ± 0.045
GGTAAGACGT	0.999 ± 0.038
GATGCGGCGT	1.04 ± 0.021
GCGGCGCTTA	1.02 ± 0.016
GACGTAATTA	1.5 ± 0.045
